Data taken from paper PMC11325161.

Target: SARS-CoV-2 nsp12 wild type (SARS-CoV-2) (UniProt P0DTD1)
Experiment: MST
Details: complex

Substance: subcomplex of wt nsp7, wt nsp8 and dsRNA (1:2:1) (from UniProt P0DTD1)
- EC50: 0.0126 µM
